EC50 data for eight molecules are collected here from US20220348632A1 (Novartis, published 2022).

The target in experiment [1] is T1, mouse Rae-1α over-expressed on CT26.WT cells (mouse, UniProt O08602 29-229).
T1 construct: whole, on cells; also called mouse RAE-1alpha; Rae-1a
T1 sequence (looked up): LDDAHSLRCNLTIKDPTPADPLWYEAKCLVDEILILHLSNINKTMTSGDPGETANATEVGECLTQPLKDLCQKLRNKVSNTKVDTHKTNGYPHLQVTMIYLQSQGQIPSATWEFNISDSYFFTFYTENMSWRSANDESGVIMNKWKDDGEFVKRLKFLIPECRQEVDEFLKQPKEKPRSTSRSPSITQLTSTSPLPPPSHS
The experiment can be described thus: flow cytometry titration on CT26.WT cells over-expressing mouse Rae-1α; R-PE anti-mouse Fc detection, mean R-PE fluorescence. How it is done: (§1) A […] cell sorting (FACS) based binding assay against mouse NKG2D-ligands expressed at the cell surface was performed to characterize the binding of the dimeric mouse NKG2D-Fc variants fused either to N-terminus or to C-terminus of the Fc region with no peptide linker or with different peptide linker lengths (10, 20 or 30 amino acids).
(§2) Half maximal effective concentration (EC50) in nM was determined on two different engineered stable CT26.WT cell lines, over-expressing at their surface the recombinant ligands mouse Rae-1α and mouse Rae-1E. The cells were incubated with the different concentrations of protein in DPBS supplemented with 5% FCS and 0.04% NaN₃ (FACS buffer). […] For each sample, the mean of the resulting fluorescence of alive gated cells was extracted using the Cell Quest Pro software (BD Biosciences).
In general terms: A flow cytometer gives signals particle by particle.

The target in experiment [2] is T2, mouse Rae-1ε over-expressed on CT26.WT cells (mouse, UniProt Q9CZQ6 29-225).
T2 construct: whole, on cells; also called mouse RAE-1 epsilon; Rae-1E
T2 sequence (looked up): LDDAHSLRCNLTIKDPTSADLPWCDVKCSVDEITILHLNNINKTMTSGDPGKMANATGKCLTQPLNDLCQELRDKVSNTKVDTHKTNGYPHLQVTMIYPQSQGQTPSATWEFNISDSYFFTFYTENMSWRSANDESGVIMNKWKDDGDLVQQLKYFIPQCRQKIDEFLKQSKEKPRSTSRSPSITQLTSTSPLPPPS
The experiment can be described thus: flow cytometry titration on CT26.WT cells over-expressing mouse Rae-1ε; R-PE anti-mouse Fc detection, mean R-PE fluorescence. As to the method:
as §1, §2

B1: MM4, mNKG2D (aa94-232)-RS(G3S)2-mNKG2D (aa94-232)-(G4S)6-mFc2 (Fc fusion)
chain: FQPVLCNKEVPVSSREGYCGPCPNNWICHRNNCYQFFNEEKTWNQSQASCLSQNSSLLKIYSKEEQDFLKLVKSYHWMGLVQIPANGSWQWEDGSSLSYNQLTLVEIPKGSCAVYGSSFKAYTEDCANLNTYICMKRAVRSGGGSGGGSFQPVLCNKEVPVSSREGYCGPCPNNWICHRNNCYQFFNEEKTWNQSQASCLSQNSSLLKIYSKEEQDFLKLVKSYHWMGLVQIPANGSWQWEDGSSLSYNQLTLVEIPKGSCAVYGSSFKAYTEDCANLNTYICMKRAVGGGGSGGGGSGGGGSGGGGSGGGGSGGGGSISAMVRSPRGPTIKPCPPCKCPAPNLLGGPSVFIFPPKIKDVLMISLSPIVTCVVVDVSEDDPDVQISWFVNNVEVHTAQTQTHREDYNSTLRVVSALPIQHQDWMSGKEFKCKVNNKDLPAPIERTISKPKGSVRAPQVYVLPPPEEEMTKKQVTLTCMVTDFMPEDIYVEWTNNGKTELNYKNTEPVLDSDGSYFMYSKLRVEKKNWVERNSYSCSVVHEGLHNHHTTKSFSRTPGK
notes: also called N-terminal, 30 aa linker
What is called EC50 is the concentration giving half of the maximal effect. Read a high EC50 as weaker potency. With B1, the half-maximal effective concentration (EC50) in experiment [1] stood at 0.894 nM; in experiment [2] it was 1.65 nM.

B2: MM6, mFc2-(G4S)2-mNKG2D (aa94-232)-RS(G3S)2-mNKG2D (aa94-232) (Fc fusion)
chain: ISAMVRSPRGPTIKPCPPCKCPAPNLLGGPSVFIFPPKIKDVLMISLSPIVTCVVVDVSEDDPDVQISWFVNNVEVHTAQTQTHREDYNSTLRVVSALPIQHQDWMSGKEFKCKVNNKDLPAPIERTISKPKGSVRAPQVYVLPPPEEEMTKKQVTLTCMVTDFMPEDIYVEWTNNGKTELNYKNTEPVLDSDGSYFMYSKLRVEKKNWVERNSYSCSVVHEGLHNHHTTKSFSRTPGKGGGGSGGGGSFQPVLCNKEVPVSSREGYCGPCPNNWICHRNNCYQFFNEEKTWNQSQASCLSQNSSLLKIYSKEEQDFLKLVKSYHWMGLVQIPANGSWQWEDGSSLSYNQLTLVEIPKGSCAVYGSSFKAYTEDCANLNTYICMKRAVRSGGGSGGGSFQPVLCNKEVPVSSREGYCGPCPNNWICHRNNCYQFFNEEKTWNQSQASCLSQNSSLLKIYSKEEQDFLKLVKSYHWMGLVQIPANGSWQWEDGSSLSYNQLTLVEIPKGSCAVYGSSFKAYTEDCANLNTYICMKRAV
notes: also called C-terminal, 10 aa linker
Regarding B2, the EC50 in experiment [1] came out at 1.15 nM; in experiment [2] it was 0.668 nM.

B3: MM2, mNKG2D (aa94-232)-RS(G3S)2-mNKG2D (aa94-232)-(G4S)2-mFc2 (Fc fusion)
chain: FQPVLCNKEVPVSSREGYCGPCPNNWICHRNNCYQFFNEEKTWNQSQASCLSQNSSLLKIYSKEEQDFLKLVKSYHWMGLVQIPANGSWQWEDGSSLSYNQLTLVEIPKGSCAVYGSSFKAYTEDCANLNTYICMKRAVRSGGGSGGGSFQPVLCNKEVPVSSREGYCGPCPNNWICHRNNCYQFFNEEKTWNQSQASCLSQNSSLLKIYSKEEQDFLKLVKSYHWMGLVQIPANGSWQWEDGSSLSYNQLTLVEIPKGSCAVYGSSFKAYTEDCANLNTYICMKRAVGGGGSGGGGSISAMVRSPRGPTIKPCPPCKCPAPNLLGGPSVFIFPPKIKDVLMISLSPIVTCVVVDVSEDDPDVQISWFVNNVEVHTAQTQTHREDYNSTLRVVSALPIQHQDWMSGKEFKCKVNNKDLPAPIERTISKPKGSVRAPQVYVLPPPEEEMTKKQVTLTCMVTDFMPEDIYVEWTNNGKTELNYKNTEPVLDSDGSYFMYSKLRVEKKNWVERNSYSCSVVHEGLHNHHTTKSFSRTPGK
notes: also called N-terminal, 10 aa linker
Take B3: the results for the concentration giving a half-maximal response (EC50) in experiment [1] and in experiment [2] were 1.27 nM and 1.87 nM, respectively.

B4: MM1, mNKG2D (aa94-232)-RS(G3S)2-mNKG2D (aa94-232)-mFc2 (Fc fusion)
chain: FQPVLCNKEVPVSSREGYCGPCPNNWICHRNNCYQFFNEEKTWNQSQASCLSQNSSLLKIYSKEEQDFLKLVKSYHWMGLVQIPANGSWQWEDGSSLSYNQLTLVEIPKGSCAVYGSSFKAYTEDCANLNTYICMKRAVRSGGGSGGGSFQPVLCNKEVPVSSREGYCGPCPNNWICHRNNCYQFFNEEKTWNQSQASCLSQNSSLLKIYSKEEQDFLKLVKSYHWMGLVQIPANGSWQWEDGSSLSYNQLTLVEIPKGSCAVYGSSFKAYTEDCANLNTYICMKRAVISAMVRSPRGPTIKPCPPCKCPAPNLLGGPSVFIFPPKIKDVLMISLSPIVTCVVVDVSEDDPDVQISWFVNNVEVHTAQTQTHREDYNSTLRVVSALPIQHQDWMSGKEFKCKVNNKDLPAPIERTISKPKGSVRAPQVYVLPPPEEEMTKKQVTLTCMVTDFMPEDIYVEWTNNGKTELNYKNTEPVLDSDGSYFMYSKLRVEKKNWVERNSYSCSVVHEGLHNHHTTKSFSRTPGK
notes: also called mouse NKG2D-Fc surrogate construct, N-terminal, no linker
For the molecule B4, the EC50 in experiment [1] came out at 1.05 nM; in experiment [2], 2.56 nM.

B5: MM7, mFc2-(G4S)4-mNKG2D (aa94-232)-RS(G3S)2-mNKG2D (aa94-232) (Fc fusion)
chain: ISAMVRSPRGPTIKPCPPCKCPAPNLLGGPSVFIFPPKIKDVLMISLSPIVTCVVVDVSEDDPDVQISWFVNNVEVHTAQTQTHREDYNSTLRVVSALPIQHQDWMSGKEFKCKVNNKDLPAPIERTISKPKGSVRAPQVYVLPPPEEEMTKKQVTLTCMVTDFMPEDIYVEWTNNGKTELNYKNTEPVLDSDGSYFMYSKLRVEKKNWVERNSYSCSVVHEGLHNHHTTKSFSRTPGKGGGGSGGGGSGGGGSGGGGSFQPVLCNKEVPVSSREGYCGPCPNNWICHRNNCYQFFNEEKTWNQSQASCLSQNSSLLKIYSKEEQDFLKLVKSYHWMGLVQIPANGSWQWEDGSSLSYNQLTLVEIPKGSCAVYGSSFKAYTEDCANLNTYICMKRAVRSGGGSGGGSFQPVLCNKEVPVSSREGYCGPCPNNWICHRNNCYQFFNEEKTWNQSQASCLSQNSSLLKIYSKEEQDFLKLVKSYHWMGLVQIPANGSWQWEDGSSLSYNQLTLVEIPKGSCAVYGSSFKAYTEDCANLNTYICMKRAV
notes: also called C-terminal variant with a linker length of 20 aa
Regarding B5, the half-maximal effective concentration (EC50) in experiment [1] is 13 nM; in experiment [2], 1.5 nM.

B6: MM3, mNKG2D (aa94-232)-RS(G3S)2-mNKG2D (aa94-232)-(G4S)4-mFc2 (Fc fusion)
chain: FQPVLCNKEVPVSSREGYCGPCPNNWICHRNNCYQFFNEEKTWNQSQASCLSQNSSLLKIYSKEEQDFLKLVKSYHWMGLVQIPANGSWQWEDGSSLSYNQLTLVEIPKGSCAVYGSSFKAYTEDCANLNTYICMKRAVRSGGGSGGGSFQPVLCNKEVPVSSREGYCGPCPNNWICHRNNCYQFFNEEKTWNQSQASCLSQNSSLLKIYSKEEQDFLKLVKSYHWMGLVQIPANGSWQWEDGSSLSYNQLTLVEIPKGSCAVYGSSFKAYTEDCANLNTYICMKRAVGGGGSGGGGSGGGGSGGGGSISAMVRSPRGPTIKPCPPCKCPAPNLLGGPSVFIFPPKIKDVLMISLSPIVTCVVVDVSEDDPDVQISWFVNNVEVHTAQTQTHREDYNSTLRVVSALPIQHQDWMSGKEFKCKVNNKDLPAPIERTISKPKGSVRAPQVYVLPPPEEEMTKKQVTLTCMVTDFMPEDIYVEWTNNGKTELNYKNTEPVLDSDGSYFMYSKLRVEKKNWVERNSYSCSVVHEGLHNHHTTKSFSRTPGK
notes: also called N-terminal, 20 aa linker
Consider B6, for which the EC50 was 0.495 nM in experiment [1] and 1.99 nM in experiment [2].

B7: MM8, mFc2-(G4S)6-mNKG2D (aa94-232)-RS(G3S)2-mNKG2D (aa94-232) (Fc fusion)
chain: ISAMVRSPRGPTIKPCPPCKCPAPNLLGGPSVFIFPPKIKDVLMISLSPIVTCVVVDVSEDDPDVQISWFVNNVEVHTAQTQTHREDYNSTLRVVSALPIQHQDWMSGKEFKCKVNNKDLPAPIERTISKPKGSVRAPQVYVLPPPEEEMTKKQVTLTCMVTDFMPEDIYVEWTNNGKTELNYKNTEPVLDSDGSYFMYSKLRVEKKNWVERNSYSCSVVHEGLHNHHTTKSFSRTPGKGGGGSGGGGSGGGGSGGGGSGGGGSGGGGSFQPVLCNKEVPVSSREGYCGPCPNNWICHRNNCYQFFNEEKTWNQSQASCLSQNSSLLKIYSKEEQDFLKLVKSYHWMGLVQIPANGSWQWEDGSSLSYNQLTLVEIPKGSCAVYGSSFKAYTEDCANLNTYICMKRAVRSGGGSGGGSFQPVLCNKEVPVSSREGYCGPCPNNWICHRNNCYQFFNEEKTWNQSQASCLSQNSSLLKIYSKEEQDFLKLVKSYHWMGLVQIPANGSWQWEDGSSLSYNQLTLVEIPKGSCAVYGSSFKAYTEDCANLNTYICMKRAV
notes: also called C-terminal variant with a linker length of 30 aa
As for B7, the concentration for a half-maximal effect (EC50) is 15.6 nM in experiment [1] and 0.624 nM in experiment [2].

B8: MM5, mFc2-mNKG2D (aa94-232)-RS(G3S)2-mNKG2D (aa94-232) (Fc fusion)
chain: ISAMVRSPRGPTIKPCPPCKCPAPNLLGGPSVFIFPPKIKDVLMISLSPIVTCVVVDVSEDDPDVQISWFVNNVEVHTAQTQTHREDYNSTLRVVSALPIQHQDWMSGKEFKCKVNNKDLPAPIERTISKPKGSVRAPQVYVLPPPEEEMTKKQVTLTCMVTDFMPEDIYVEWTNNGKTELNYKNTEPVLDSDGSYFMYSKLRVEKKNWVERNSYSCSVVHEGLHNHHTTKSFSRTPGKFQPVLCNKEVPVSSREGYCGPCPNNWICHRNNCYQFFNEEKTWNQSQASCLSQNSSLLKIYSKEEQDFLKLVKSYHWMGLVQIPANGSWQWEDGSSLSYNQLTLVEIPKGSCAVYGSSFKAYTEDCANLNTYICMKRAVRSGGGSGGGSFQPVLCNKEVPVSSREGYCGPCPNNWICHRNNCYQFFNEEKTWNQSQASCLSQNSSLLKIYSKEEQDFLKLVKSYHWMGLVQIPANGSWQWEDGSSLSYNQLTLVEIPKGSCAVYGSSFKAYTEDCANLNTYICMKRAV
notes: also called C-terminal, no linker
In the case of B8, the values for the EC50 in experiment [1] and in experiment [2] were 0.738 nM and 3.02 nM, respectively.
